Data published in publication PMC3964918 (RNA, 2014).
Like-named read-outs stand apart in the source and are kept apart here. Blank lines part the entries; values can stand above or below the binder they belong to.

Columns and labels:
Experiment in all cases: far-Western, overlay or dot blot
[1] = target: T1, AnaPnp, recombinant Anabaena PNPase (Anabaena PCC7120, UniProt Q8YP11 1-718)
T1 sequence (looked up): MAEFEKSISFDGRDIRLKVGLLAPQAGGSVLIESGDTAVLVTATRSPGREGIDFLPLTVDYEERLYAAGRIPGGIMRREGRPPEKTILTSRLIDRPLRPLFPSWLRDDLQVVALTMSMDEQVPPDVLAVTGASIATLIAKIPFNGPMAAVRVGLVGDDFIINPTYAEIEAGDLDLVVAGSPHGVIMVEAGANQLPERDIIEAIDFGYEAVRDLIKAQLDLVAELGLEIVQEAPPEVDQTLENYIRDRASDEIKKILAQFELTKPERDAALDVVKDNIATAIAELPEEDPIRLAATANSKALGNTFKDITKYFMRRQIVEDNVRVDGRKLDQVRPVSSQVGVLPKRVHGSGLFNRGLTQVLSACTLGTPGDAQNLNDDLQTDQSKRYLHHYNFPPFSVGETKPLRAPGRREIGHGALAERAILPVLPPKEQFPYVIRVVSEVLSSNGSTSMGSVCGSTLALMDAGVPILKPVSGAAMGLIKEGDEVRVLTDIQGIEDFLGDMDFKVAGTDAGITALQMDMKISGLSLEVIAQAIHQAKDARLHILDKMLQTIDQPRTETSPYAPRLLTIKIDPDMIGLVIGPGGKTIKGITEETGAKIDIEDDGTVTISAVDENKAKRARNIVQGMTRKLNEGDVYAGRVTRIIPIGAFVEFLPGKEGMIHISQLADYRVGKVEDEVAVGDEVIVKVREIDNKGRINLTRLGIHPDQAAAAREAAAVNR

[2] = target: T2, SynPnp, recombinant Synechocystis PNPase (Synechocystis PCC6803, UniProt P72659 1-718)
T2 sequence (looked up): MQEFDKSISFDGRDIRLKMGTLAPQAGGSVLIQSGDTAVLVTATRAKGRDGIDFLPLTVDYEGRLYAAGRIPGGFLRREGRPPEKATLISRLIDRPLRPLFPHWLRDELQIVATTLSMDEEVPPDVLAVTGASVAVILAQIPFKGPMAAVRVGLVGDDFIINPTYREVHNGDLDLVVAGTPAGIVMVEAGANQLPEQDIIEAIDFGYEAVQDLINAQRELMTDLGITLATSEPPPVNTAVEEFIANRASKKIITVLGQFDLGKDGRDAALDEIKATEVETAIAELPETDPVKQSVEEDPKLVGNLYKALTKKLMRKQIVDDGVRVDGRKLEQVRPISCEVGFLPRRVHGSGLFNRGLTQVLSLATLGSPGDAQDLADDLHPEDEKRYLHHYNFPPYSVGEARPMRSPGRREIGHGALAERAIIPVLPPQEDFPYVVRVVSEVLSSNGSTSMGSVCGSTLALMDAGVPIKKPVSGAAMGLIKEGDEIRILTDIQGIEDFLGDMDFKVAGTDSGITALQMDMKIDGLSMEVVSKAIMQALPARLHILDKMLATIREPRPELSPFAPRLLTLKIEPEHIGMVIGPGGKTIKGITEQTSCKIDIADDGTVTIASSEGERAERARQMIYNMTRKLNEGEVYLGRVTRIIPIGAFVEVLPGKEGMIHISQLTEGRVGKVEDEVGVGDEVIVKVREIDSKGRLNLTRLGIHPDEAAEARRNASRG

[3] = target: T2, SynPnp, recombinant Synechocystis PNPase; remark: listed apart in the source

binding result [1]: binds
B1: GFP-C4a (GFP fused at its C-terminus to C4 with four flanking residues at both ends) (peptide)
chain: STANRRRRRRSSASDSD

binding result [2]: binds
B2: GFP-C4b (GFP fused at its C-terminus to the C4 nonapeptide) (peptide)
chain: RRRRRRSSA

binding result [3]: binds
B3: synthetic nonapeptide of C4 (peptide)
peptide: RRRRRRSSA
